Measured values taken from US20250135046A1, “CHOLECYSTOKININ B RECEPTOR-TARGETED COMPLEX AND A CONTRAST AGENT THEREOF” (National Atomic Research Institute, priority 2023, published 2025).
Square brackets hold non-standard residues; d marks the D form. Peptide text beside a SMILES is read from it. * marks the point of attachment. DOTA = O=C(O)CN1CCN(CC(=O)O)CCN(CC(=O)*)CCN(CC(=O)O)CC1; Butanoyl(4-(4-MePh)) = Cc1ccc(CCCC(=O)*)cc1; 4Amb = NCc1ccc(C(=O)O)cc1; Nle = CCCC[C@H](N)C(=O)O; Ahx = NCCCCCC(=O)O

Tested on: tumor site where the cholecystokinin B receptor is overexpressed
Set-up: species or system nude mice
Details: mouse, in vivo
Experimental: Establishment of tumor animal model: Five-to six-week-old male experimental nude mice are purchased from the National Laboratory Animal Center (NLAC, TAIWAN) and bred in the animal facility. All animal experiment procedures are performed in accordance with the protocols approved by Institutional Animal Care and Use Committee (IACUC, TAIWAN). The experimental mice are kept at a temperature of 21-23° C., and a 12-hour light-dark cycle are used as the basis for the animal's physiological cycle. A431-CCK2R^(−) and A431-CCK2R^(+) cells (2×10^6 cells) are inoculated in the left and right hind limbs of the mice. After the tumors growing to 200-300 mm^3, the radioactive labeled complexes Lu-177-D1, Lu-177-D2, and Lu-177-D3 are used as radiotherapy drugs and start the treatments. The cholecystokinin B receptor-targeted radiotherapy drugs […], Lu-177-D2, and Lu-177-D3 are administrated to the mice respectively by tail vein injection. After different time periods of administration, such as 4, 24, and 48 hours, the coronal sections of three tumor mice are obtained (Refer to FIG. 3). By showing the comparison of NanoSPECT and CT fusion images at different time points, the accumulation of these radiotherapy drugs in the tumor tissue can be observed. Then measure and record the tumor size twice a week. […]

Structure (SMILES)	duration of drug accumulation in the tumor site
CCCC[C@H](NC(=O)[C@H](Cc1c[nH]c2ccccc12)NC(=O)CNC(=O)[C@H](Cc1ccc(O)cc1)NC(=O)[C@H](C)NC(=O)[C@H](CCC(=O)O)NC(=O)[C@H](CCC(=O)O)NC(=O)[C@H](CCC(=O)O)NC(=O)[C@H](CCC(=O)O)NC(=O)[C@H](CCC(=O)O)NC(=O)[C@H](CCC(=O)O)NC(=O)CCCCCNC(=O)[C@H](CCCCNC(=O)CCCc1ccc(C)cc1)NC(=O)CN1CCN(CC(=O)O)CCN(CC(=O)O)CCN(CC(=O)O)CC1)C(=O)N[C@@H](CC(=O)O)C(=O)N[C@@H](Cc1ccccc1)C(N)=O [Lu-177-D1, metal not drawn] ({DOTA}-K(Butanoyl(4-(4-MePh)))[Ahx]EEEEEEAYGW[Nle]DF-NH2)	at least 48 hours
CCCC[C@H](NC(=O)[C@H](Cc1c[nH]c2ccccc12)NC(=O)CNC(=O)[C@H](Cc1ccc(O)cc1)NC(=O)[C@H](C)NC(=O)[C@H](CCC(=O)O)NC(=O)[C@H](CCC(=O)O)NC(=O)[C@H](CCC(=O)O)NC(=O)[C@H](CCC(=O)O)NC(=O)[C@H](CCC(=O)O)NC(=O)[C@H](CCC(=O)O)NC(=O)c1ccc(CNC(=O)[C@H](CCCCNC(=O)CCCc2ccc(C)cc2)NC(=O)CN2CCN(CC(=O)O)CCN(CC(=O)O)CCN(CC(=O)O)CC2)cc1)C(=O)N[C@@H](CC(=O)O)C(=O)N[C@@H](Cc1ccccc1)C(N)=O [Lu-177-D3, metal not drawn] ({DOTA}-K(Butanoyl(4-(4-MePh)))[4Amb]EEEEEEAYGW[Nle]DF-NH2)	at least 48 hours
